The results in this text go back to paper PMC5131778 (Genes & Development, 2016).

In one data set the target is T1, WD40 domain of Gemin5 (Homo sapiens, UniProt Q8TEQ6).
T1 sequence (Q8TEQ6 1-739): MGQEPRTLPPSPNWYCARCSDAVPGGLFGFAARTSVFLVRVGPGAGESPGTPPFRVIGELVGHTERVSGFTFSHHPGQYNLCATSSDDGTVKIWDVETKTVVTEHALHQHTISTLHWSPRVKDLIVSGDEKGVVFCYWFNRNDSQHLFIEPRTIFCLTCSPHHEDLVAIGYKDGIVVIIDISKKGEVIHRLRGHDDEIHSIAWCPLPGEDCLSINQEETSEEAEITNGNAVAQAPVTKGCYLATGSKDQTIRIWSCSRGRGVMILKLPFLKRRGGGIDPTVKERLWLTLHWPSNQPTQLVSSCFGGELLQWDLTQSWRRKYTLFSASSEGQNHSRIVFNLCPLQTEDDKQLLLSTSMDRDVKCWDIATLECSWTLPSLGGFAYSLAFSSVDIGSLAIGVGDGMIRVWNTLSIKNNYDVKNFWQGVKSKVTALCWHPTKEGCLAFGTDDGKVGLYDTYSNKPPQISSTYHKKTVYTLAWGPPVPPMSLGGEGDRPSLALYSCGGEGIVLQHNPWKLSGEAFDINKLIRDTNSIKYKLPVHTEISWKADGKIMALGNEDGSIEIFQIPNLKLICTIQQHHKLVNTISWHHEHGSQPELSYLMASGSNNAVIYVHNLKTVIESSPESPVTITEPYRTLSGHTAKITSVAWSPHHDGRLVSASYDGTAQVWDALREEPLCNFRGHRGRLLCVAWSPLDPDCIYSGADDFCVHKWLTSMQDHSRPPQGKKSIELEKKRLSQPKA
Nature of the data set: isothermal titration calorimetry. The format is binding. Background: Isothermal titration calorimetry measures the heat released or taken up as one component is titrated into another.

Data set [1] has as its target T2, Gemin5 WD40 domain (Homo sapiens, UniProt Q8TEQ6 1-739). In words: crystal structure.
The target in data set [2] is T2, Gemin5 WD40 domain. Nature of the data set: ITC.
A further data set addresses Gemin5 WD40 Y474A (Homo sapiens, UniProt Q8TEQ6 1-739, Y474A). Nature of the data set: ITC.
Another data set concerns the target Gemin5 WD40 E197A (Homo sapiens, UniProt Q8TEQ6 1-739, E197A). Nature of the data set: ITC.

Chain of Gemin5 WD40 E197A (Q8TEQ6 1-739 E197A): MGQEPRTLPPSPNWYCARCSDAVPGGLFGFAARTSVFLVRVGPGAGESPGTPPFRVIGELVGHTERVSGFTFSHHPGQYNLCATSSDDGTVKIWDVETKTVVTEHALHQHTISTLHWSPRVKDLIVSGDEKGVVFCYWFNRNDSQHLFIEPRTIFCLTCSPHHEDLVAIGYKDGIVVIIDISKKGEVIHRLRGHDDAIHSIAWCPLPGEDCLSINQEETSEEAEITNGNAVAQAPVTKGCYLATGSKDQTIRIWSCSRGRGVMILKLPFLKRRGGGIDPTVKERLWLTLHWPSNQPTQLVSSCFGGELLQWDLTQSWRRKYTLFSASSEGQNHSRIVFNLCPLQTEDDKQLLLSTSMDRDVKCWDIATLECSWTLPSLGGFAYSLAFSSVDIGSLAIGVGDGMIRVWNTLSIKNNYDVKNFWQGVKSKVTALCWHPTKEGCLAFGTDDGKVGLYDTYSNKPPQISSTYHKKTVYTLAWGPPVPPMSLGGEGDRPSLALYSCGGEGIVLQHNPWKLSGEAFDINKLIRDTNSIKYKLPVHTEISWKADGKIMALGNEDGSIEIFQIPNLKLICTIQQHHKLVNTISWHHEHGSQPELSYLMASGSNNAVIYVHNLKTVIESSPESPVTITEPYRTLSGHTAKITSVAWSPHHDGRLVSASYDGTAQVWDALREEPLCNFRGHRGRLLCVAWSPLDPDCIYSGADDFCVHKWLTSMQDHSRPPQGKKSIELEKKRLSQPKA

The Kd is the concentration at which binding is half-saturated. With `C[n+]1cn([C@@H]2O[C@H](COP(=O)(O)OP(=O)(O)OP(=O)(O)OC[C@H]3O[C@@H](n4cnc5c(=O)[nH]c(N)nc54)[C@H](O)[C@@H]3O)[C@@H](O)[C@H]2O)c2nc(N)[nH]c(=O)c21` [m^7GpppG], the Kd at WD40 domain of Gemin5 was 4 µM.

As for AAUUUUUGAG (ssRNA) [pre-U4 (118-127) crystal RNA], the binding result with Gemin5 WD40 domain [1] was “binds”.

Consider AAUCUUUG (ssRNA) [pre-U4 (118-125) U121C], for which, in the data set with Gemin5 WD40 domain [2], the affinity, expressed as Kd, was 11 ± 2 µM.

As to AACUUUUG (ssRNA) [pre-U4 (118-125) U120C], the binding result in the data set with Gemin5 WD40 domain [2] was “no binding”.

In the case of AAUUGUUG (ssRNA) [pre-U4 (118-125) U122G], in the data set with Gemin5 WD40 domain [2], the binding result is reported as “no binding”.

Turning to AAUUUUUG (ssRNA) [pre-U4 (118-125) Sm site], the binding result in the data set with Gemin5 WD40 Y474A is recorded as “binds”. In the data set with Gemin5 WD40 E197A, this molecule came in with a Kd of 40 ± 5 µM.

As for AAUUCUUG (ssRNA) [pre-U4 (118-125) U122C], the binding result with Gemin5 WD40 domain [2] was “no binding”.
